The results in this text go back to article PMC2839365.

This assay deals with ZU5 domain of ankyrin. Put plainly: ITC. In general terms: ITC needs no label: the signal is the heat of the interaction.
Sequence of ZU5 domain of ankyrin (P16157 913-1068): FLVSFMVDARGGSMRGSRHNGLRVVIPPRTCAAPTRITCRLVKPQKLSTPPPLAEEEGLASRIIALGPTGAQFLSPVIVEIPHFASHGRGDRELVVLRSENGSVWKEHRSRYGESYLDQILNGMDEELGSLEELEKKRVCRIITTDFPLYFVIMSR

The substance “wild type βI-spectrin 14-15 di-repeat (domain or fragment)” had a dH of 5.98 kcal/mol.

In turn, βI14-15 A1867P (domain or fragment) gave a dH of 0.904 kcal/mol.

βI14-15 D1700A (domain or fragment) had a dH of 4.42 kcal/mol.

βI14-15 D1701A (domain or fragment) had a dH of 4.64 kcal/mol.

The substance βI14-15 D1781A (domain or fragment) came in with a dH of 5.52 kcal/mol.

On to βI14-15 E1703A (domain or fragment), for which the dH was found to be 4.82 kcal/mol.

For βI14-15 E1708A (domain or fragment), the dH amounted to 3.27 kcal/mol.

For βI14-15 E1710A (domain or fragment), the dH is 3.73 kcal/mol.

For βI14-15 E1784A (domain or fragment), the dH stood at 5.21 kcal/mol.

Turning to βI14-15 T1788A (domain or fragment), the dH was found to be 2.08 kcal/mol.

The substance βI14-15 Y1866A (domain or fragment) gave a dH of 2.52 kcal/mol.
